Assay results: publication PMC4834642, “Orthogonal ring-closing alkyne and olefin metathesis for the synthesis of small GTPase-targeting bicyclic peptides” (Nature Communications, 2016)

How the values were obtained:
peptide 28 = molecular target: T1, peptide 28 (Homo sapiens, UniProt Q6IQ26); assay: fluorescence polarization
T1 chain: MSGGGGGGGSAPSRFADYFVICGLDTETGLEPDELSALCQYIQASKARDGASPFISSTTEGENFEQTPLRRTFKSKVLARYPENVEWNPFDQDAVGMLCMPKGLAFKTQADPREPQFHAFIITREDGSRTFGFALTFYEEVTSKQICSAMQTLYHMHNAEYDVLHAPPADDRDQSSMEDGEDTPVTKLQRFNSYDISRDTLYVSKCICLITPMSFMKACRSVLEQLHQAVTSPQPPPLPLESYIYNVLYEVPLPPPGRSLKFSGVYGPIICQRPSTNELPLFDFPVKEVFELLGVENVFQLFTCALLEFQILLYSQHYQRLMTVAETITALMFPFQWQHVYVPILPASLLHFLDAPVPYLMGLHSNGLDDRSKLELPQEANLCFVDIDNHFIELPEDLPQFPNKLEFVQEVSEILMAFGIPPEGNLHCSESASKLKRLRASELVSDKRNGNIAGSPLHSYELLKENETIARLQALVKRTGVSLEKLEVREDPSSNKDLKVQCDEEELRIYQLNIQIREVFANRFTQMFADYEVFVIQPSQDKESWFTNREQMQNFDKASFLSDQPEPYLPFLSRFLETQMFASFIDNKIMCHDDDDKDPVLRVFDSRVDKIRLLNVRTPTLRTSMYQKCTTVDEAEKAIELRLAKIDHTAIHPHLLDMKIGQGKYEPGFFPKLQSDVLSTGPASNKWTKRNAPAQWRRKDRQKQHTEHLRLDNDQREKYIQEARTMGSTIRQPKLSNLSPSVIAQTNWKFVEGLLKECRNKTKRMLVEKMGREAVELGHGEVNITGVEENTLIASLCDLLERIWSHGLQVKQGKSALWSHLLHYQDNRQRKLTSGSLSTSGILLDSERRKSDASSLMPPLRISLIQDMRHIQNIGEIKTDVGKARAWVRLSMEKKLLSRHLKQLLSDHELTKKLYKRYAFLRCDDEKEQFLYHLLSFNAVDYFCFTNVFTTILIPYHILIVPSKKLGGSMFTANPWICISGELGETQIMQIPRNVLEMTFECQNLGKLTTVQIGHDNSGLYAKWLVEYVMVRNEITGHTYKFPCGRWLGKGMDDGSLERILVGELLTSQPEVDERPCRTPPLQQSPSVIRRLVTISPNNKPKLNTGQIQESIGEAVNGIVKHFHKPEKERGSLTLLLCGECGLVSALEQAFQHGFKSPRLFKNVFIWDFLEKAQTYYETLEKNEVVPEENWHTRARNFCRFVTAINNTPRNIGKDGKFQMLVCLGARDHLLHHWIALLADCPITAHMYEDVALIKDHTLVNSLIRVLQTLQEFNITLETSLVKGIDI

peptide 25 [1] = molecular target: T2, peptide 25 (Homo sapiens, UniProt Q6IQ26); assay: fluorescence polarization
T2 chain: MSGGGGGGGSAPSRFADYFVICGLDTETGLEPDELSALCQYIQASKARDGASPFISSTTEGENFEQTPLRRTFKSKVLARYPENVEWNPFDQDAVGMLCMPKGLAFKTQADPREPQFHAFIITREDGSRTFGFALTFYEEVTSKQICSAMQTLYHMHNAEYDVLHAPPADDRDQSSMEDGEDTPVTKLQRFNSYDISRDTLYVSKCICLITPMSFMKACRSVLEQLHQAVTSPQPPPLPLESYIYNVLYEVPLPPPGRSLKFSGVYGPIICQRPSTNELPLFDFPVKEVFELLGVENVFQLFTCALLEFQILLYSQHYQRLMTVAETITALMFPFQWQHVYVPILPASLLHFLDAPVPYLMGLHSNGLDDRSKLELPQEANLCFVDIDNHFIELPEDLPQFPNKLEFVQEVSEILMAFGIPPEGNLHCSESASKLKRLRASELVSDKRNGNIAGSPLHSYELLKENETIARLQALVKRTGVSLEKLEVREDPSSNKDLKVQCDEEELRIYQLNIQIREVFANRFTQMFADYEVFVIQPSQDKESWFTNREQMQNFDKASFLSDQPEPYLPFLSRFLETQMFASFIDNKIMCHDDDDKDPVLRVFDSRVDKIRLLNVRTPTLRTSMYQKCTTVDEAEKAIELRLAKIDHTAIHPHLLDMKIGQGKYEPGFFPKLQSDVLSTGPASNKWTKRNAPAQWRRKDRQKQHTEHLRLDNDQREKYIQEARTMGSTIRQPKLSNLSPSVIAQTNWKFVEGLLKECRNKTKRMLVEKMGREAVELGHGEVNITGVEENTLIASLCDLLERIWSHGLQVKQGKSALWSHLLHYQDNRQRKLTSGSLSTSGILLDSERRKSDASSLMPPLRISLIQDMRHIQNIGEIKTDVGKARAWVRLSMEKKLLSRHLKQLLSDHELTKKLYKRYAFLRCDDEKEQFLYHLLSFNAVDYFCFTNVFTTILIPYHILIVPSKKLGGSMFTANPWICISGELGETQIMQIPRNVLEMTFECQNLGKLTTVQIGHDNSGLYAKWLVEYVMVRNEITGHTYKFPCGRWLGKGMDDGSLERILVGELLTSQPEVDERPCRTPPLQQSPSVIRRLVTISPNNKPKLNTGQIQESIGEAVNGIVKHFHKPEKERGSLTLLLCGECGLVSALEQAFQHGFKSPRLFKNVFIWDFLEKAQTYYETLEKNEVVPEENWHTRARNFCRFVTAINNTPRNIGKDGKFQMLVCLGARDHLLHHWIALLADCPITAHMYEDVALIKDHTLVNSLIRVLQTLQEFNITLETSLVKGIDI

peptide 25 [2] = molecular target: T2, peptide 25; assay: microscale thermophoresis (fluorescence intensity)
StRIP3 [3] = molecular target: T3, StRIP3 (Homo sapiens, UniProt Q6IQ26); assay: fluorescence polarization
T3 chain: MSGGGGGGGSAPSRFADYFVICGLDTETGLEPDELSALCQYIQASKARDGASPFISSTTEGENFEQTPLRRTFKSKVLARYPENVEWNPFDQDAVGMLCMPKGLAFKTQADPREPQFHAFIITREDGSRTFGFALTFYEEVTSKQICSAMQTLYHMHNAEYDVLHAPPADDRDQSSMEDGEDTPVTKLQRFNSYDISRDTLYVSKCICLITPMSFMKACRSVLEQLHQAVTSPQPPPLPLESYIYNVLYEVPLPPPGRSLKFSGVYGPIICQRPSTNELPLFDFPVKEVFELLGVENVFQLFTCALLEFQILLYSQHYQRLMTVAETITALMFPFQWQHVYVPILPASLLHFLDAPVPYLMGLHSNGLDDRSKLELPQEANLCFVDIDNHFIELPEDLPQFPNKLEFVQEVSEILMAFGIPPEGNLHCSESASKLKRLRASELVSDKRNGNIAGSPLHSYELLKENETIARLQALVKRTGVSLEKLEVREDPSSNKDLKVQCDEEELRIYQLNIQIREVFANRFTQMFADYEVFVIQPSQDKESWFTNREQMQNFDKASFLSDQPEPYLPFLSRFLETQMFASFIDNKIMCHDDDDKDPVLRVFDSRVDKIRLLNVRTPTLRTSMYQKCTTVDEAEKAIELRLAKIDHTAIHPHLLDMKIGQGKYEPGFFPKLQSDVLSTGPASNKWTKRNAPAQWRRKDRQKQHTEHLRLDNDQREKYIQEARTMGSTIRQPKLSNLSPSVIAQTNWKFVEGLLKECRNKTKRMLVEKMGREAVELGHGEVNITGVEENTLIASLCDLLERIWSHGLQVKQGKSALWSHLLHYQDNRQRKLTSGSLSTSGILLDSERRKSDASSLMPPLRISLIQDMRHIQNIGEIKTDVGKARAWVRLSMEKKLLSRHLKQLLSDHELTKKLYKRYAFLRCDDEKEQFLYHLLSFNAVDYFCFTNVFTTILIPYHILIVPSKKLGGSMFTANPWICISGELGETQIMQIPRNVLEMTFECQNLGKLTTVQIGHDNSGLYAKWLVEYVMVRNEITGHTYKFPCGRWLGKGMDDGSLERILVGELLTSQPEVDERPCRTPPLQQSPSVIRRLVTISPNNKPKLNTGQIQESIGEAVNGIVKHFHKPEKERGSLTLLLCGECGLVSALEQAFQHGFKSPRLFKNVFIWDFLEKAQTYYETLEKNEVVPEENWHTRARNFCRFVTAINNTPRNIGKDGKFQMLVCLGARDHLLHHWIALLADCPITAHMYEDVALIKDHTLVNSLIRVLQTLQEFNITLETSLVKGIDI

StRIP3 [4] = molecular target: T3, StRIP3; assay: competition fluorescence polarization
peptide 21 = molecular target: T4, peptide 21 (Homo sapiens, UniProt Q6IQ26); assay: fluorescence polarization
T4 chain: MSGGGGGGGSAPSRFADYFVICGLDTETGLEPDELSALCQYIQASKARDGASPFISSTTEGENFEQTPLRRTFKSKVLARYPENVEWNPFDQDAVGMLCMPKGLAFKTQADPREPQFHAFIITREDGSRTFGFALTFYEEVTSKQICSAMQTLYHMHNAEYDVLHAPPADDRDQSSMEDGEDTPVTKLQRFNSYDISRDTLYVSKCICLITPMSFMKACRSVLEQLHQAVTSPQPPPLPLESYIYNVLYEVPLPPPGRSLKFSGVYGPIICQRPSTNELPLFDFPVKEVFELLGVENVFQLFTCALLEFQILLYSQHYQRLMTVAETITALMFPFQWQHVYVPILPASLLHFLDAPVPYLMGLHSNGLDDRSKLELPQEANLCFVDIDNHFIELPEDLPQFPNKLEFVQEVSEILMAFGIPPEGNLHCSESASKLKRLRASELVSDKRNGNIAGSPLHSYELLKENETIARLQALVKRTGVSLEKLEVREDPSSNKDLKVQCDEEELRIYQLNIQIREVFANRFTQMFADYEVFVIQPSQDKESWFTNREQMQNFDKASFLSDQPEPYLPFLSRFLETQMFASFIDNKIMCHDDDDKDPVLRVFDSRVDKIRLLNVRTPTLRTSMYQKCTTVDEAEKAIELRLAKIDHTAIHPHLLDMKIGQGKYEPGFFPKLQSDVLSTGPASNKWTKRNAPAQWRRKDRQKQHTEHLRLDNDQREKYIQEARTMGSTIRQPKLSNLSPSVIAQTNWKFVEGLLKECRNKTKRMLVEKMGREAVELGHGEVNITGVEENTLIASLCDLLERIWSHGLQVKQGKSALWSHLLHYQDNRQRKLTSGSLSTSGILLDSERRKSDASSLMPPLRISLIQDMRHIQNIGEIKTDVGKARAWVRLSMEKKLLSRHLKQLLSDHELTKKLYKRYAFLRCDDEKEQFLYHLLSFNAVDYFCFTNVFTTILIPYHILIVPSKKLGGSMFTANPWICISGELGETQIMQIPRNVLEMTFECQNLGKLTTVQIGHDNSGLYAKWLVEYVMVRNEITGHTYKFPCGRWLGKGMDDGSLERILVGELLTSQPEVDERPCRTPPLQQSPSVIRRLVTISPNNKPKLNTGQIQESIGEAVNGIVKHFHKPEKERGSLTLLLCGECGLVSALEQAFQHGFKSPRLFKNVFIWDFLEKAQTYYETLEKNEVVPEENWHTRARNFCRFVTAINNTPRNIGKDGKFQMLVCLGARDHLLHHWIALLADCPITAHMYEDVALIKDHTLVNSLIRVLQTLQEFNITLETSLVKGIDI

B1: Rab8a 6-176 (protein)
chain: DYLFKLLLIGDSGVGKTCVLFRFSEDAFNSTFISTIGIDFKIRTIELDGKRIKLQIWDTAGQERFRTITTAYYRGAMGIMLVYDITNEKSFDNIRNWIRNIEEHASADVEKMILGNKCDVNDKRQVSKERGEKLALDYGIKFMETSAKANINVENAFFTLARDIKAKMDKK
modifications: GppNHp-bound Rab8a; bicyclic alkyne/olefin crosslinked StRIP3 derivative, fluorescein-PEG label
In the case of B1, the Kd (peptide 28) is reported as 9.6 µM.

B2: Rab8a 6-176 (protein)
chain: DYLFKLLLIGDSGVGKTCVLFRFSEDAFNSTFISTIGIDFKIRTIELDGKRIKLQIWDTAGQERFRTITTAYYRGAMGIMLVYDITNEKSFDNIRNWIRNIEEHASADVEKMILGNKCDVNDKRQVSKERGEKLALDYGIKFMETSAKANINVENAFFTLARDIKAKMDKK
modifications: GppNHp-bound Rab8a; bicyclic olefin/alkyne crosslinked StRIP3 derivative, fluorescein-PEG label
Binder B2 has a Kd (peptide 25 [1]) of 6.6 µM and a Kd (peptide 25 [2]) of 11 µM.

B3: Rab8a 6-176 (protein)
chain: DYLFKLLLIGDSGVGKTCVLFRFSEDAFNSTFISTIGIDFKIRTIELDGKRIKLQIWDTAGQERFRTITTAYYRGAMGIMLVYDITNEKSFDNIRNWIRNIEEHASADVEKMILGNKCDVNDKRQVSKERGEKLALDYGIKFMETSAKANINVENAFFTLARDIKAKMDKK
modifications: GppNHp-bound Rab8a; i,i+4 olefin hydrocarbon-stapled peptide, fluorescein-PEG label
Work on B3 yielded a Kd (StRIP3 [3]) of 20.7 µM.

B4: Rab8a 6-176 (protein)
chain: DYLFKLLLIGDSGVGKTCVLFRFSEDAFNSTFISTIGIDFKIRTIELDGKRIKLQIWDTAGQERFRTITTAYYRGAMGIMLVYDITNEKSFDNIRNWIRNIEEHASADVEKMILGNKCDVNDKRQVSKERGEKLALDYGIKFMETSAKANINVENAFFTLARDIKAKMDKK
modifications: GppNHp-bound Rab8a; acetylated i,i+4 olefin hydrocarbon-stapled peptide
B4 gave an IC50 (StRIP3 [4]) of 33 µM.

B5: Rab8a 6-176 (protein)
chain: DYLFKLLLIGDSGVGKTCVLFRFSEDAFNSTFISTIGIDFKIRTIELDGKRIKLQIWDTAGQERFRTITTAYYRGAMGIMLVYDITNEKSFDNIRNWIRNIEEHASADVEKMILGNKCDVNDKRQVSKERGEKLALDYGIKFMETSAKANINVENAFFTLARDIKAKMDKK
modifications: GppNHp-bound Rab8a; dibrominated olefin macrocyclic StRIP3 derivative, fluorescein-PEG label
With B5 the Kd (peptide 21) was 10.7 µM.
